{"source": "paper PMC5600724", "target": "recombinant Plasmodium vivax apical membrane antigen 1 ectodomain (rPvAMA1) (Plasmodium vivax)", "experiment": "ELISA; phage ELISA: wells coated with rPvAMA1 (100 ug/ml in 0.1 M NaHCO3, pH 8.6), blocked with BSA; ~10^9 phage in TBST, 2 h at room temperature; HRP anti-M13 antibody, ABTS, A405; fold = absorbance on target / absorbance on BSA-blocked well"}
{"binder": "TSVSYINNRHNL", "note": "[PdV3 phage-displayed dodecapeptide]", "values": [{"measurement": "fold of binding signal (A405 on rPvAMA1 over A405 on BSA)", "result": 3.1, "unit": "fold"}]}
{"binder": "WHWSWWNPNQLT", "note": "[PdV2 phage-displayed dodecapeptide]", "values": [{"measurement": "fold of binding signal (A405 on rPvAMA1 over A405 on BSA)", "result": 3.5, "unit": "fold"}]}
